Measurements published in US20120263728A1.
Changes are numbered by the printed parent chain.

B1: CA167_00932 (antibody, from another filing, rabbit IgG1, V domains shown)
VH: QSLEESGGRLVTPGTPLTLTCTVSGFSLSRYWMSWVRQAPGKGLEWIGNIGGGSGSTLYAPWAKGRSTISKTSTTVDLKITSPTTEDTATYFCGRYVKNGGGYRLDLWGPGTLVTVS
VL: AAVLTQTPSSVSAAVGGTVTIKCQSSQSVYNNNEFSWYQQKPGQPPKLLIYDASKLASGVPSRFSGSGSGTQFTLTISGVQCDDVATYYCLGGYNDDTNRWAFGGGTEVVVE
B2: CA167_01080 (antibody, from another filing, rabbit IgG1, V domains shown)
VH: QSLEESGGRLVTPETPLTLTCTASGIDLSKWPMTWVRQAPGKGLEWIGIIGRSGSTNYASWAKGRFTISKTSTTVDLKMTSPTTEDTATYFCARGGSYYDLWGQGTLVTVS
VL: AQVLTQTASPVSAAVGNTVTITCQSSQSVWKNNDLSWYQQKLGQPPKLLIYYASTLASGVSSRFKASGSGTQFTLTISDVQCDDAGTYYCVGSYDCSSADCNAFGGGTKVVVK
B3: CA167_00983 (antibody, from another filing, rabbit IgG1, V domains shown)
VH: QSVEESGGRLVTPGTPLTLTCTVSGFSLSNYAMSWVRQAPGKGLEWIGIIGKSGSTAYASWAKGRFTISRTSTTVDLEITSPTTEDTATYFCVRFVLLWGPGTLVTVS
VL: B2 VL with N17G, T22N, W30Y, S36A, L42P, A66G, Q72E, V80A, G86A, V91L

Columns and labels:
[1] = biological target: human Nav1.7 channel (type IX voltage-gated sodium channel alpha subunit) (human) (UniProt Q15858); assay: cell-based or functional assay
[2] = biological target: recombinant rat Nav1.7 channels expressed in HEK cells (rat) (UniProt O08562); assay: cell-based or functional assay
UniProt O08562, sequence (O08562 whole entry): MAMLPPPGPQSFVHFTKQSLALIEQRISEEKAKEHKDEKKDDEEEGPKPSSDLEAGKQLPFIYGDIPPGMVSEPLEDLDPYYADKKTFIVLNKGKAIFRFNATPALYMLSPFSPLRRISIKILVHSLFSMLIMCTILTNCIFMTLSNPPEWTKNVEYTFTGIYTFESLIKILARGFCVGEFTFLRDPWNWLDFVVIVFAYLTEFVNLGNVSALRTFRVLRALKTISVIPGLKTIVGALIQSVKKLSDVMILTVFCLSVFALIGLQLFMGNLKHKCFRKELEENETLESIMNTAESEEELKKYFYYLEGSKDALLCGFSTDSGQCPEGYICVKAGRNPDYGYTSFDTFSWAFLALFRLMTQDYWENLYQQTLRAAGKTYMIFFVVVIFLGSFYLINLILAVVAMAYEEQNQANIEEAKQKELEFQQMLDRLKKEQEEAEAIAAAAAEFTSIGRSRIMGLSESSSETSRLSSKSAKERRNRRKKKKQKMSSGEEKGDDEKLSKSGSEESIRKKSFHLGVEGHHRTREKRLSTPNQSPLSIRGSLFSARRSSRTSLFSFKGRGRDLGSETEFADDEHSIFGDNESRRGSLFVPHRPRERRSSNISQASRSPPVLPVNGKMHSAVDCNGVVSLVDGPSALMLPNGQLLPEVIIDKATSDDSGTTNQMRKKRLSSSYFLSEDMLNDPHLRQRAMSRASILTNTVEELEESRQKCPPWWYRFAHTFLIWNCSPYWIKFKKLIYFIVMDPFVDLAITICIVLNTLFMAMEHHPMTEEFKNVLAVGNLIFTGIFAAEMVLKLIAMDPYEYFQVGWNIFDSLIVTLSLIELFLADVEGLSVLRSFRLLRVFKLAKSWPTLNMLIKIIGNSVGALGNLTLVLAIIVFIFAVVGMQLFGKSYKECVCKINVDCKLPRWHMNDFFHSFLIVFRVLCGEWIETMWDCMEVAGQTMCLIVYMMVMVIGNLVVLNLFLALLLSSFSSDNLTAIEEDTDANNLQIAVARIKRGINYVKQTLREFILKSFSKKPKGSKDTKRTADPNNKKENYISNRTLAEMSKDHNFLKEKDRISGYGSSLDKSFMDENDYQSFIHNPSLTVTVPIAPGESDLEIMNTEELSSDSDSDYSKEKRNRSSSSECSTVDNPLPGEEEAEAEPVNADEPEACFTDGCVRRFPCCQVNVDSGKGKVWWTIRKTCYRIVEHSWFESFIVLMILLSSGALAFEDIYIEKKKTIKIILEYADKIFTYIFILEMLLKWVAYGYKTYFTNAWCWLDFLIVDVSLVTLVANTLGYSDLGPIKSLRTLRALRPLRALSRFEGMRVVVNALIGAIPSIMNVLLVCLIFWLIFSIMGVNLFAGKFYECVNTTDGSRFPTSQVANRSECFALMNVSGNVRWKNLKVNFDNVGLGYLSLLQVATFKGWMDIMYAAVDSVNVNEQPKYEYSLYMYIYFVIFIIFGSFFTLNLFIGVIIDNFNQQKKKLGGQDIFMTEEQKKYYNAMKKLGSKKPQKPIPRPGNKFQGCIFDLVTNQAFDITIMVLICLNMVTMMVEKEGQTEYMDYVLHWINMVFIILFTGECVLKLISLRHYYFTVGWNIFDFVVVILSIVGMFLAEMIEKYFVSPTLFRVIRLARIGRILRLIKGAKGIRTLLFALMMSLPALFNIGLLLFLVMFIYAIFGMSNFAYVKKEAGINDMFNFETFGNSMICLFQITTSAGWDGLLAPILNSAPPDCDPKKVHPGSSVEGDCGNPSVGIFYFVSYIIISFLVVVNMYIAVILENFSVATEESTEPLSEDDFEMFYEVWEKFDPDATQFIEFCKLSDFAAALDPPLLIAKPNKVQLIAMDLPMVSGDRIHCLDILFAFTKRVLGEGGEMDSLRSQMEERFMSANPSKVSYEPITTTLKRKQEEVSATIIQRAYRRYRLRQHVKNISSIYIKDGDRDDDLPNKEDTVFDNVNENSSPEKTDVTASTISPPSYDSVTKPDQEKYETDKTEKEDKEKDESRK

Row | Binder | Nav1.7 inhibition (%) at 25 µg/ml, automated patch clamp on HEK cells [1] [%] | inhibition of Nav1.7 currents at 25 µg/ml, automated Patch Clamp [2] [%]
1 | B1 | 27 | –
2 | B2 | 46 | 26
3 | B3 | 41 | –
